Test results as given in publication PMC9966149, “The Dynamic Interactions of a Multitargeting Domain in Ameloblastin Protein with Amelogenin and Membrane” (International Journal of Molecular Sciences, 2023).
Values belong to the binder of their own block, whether it stands above or below them.

Experiments:
[1] = target: T1, tryptophan-free recombinant porcine amelogenin (rP172-W25Y/W45Y/W161Y) (porcine, UniProt P45561 17-189, W25Y | W45Y | W161Y); assay: other fluorescence titration; intrinsic tryptophan fluorescence (excitation 295 nm, peak wavelength); 8 uM tryptophan-containing peptide before and after 40 uM rP172-W0, no LUVs; 10 mM Tris-HCl, 50 mM NaCl, final pH 7.4; conditions: both partners purified
T1 construct: all three tryptophans changed to tyrosine; also called rP172-W0; recombinant Amel
T1 sequence (looked up): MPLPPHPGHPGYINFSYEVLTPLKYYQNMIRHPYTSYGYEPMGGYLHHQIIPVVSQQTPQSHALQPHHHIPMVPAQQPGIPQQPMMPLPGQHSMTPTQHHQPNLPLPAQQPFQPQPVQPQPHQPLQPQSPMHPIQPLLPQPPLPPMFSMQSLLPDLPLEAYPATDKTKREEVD

[2] = target: spin-labeled xAB2N and AB2 (all residues); assay: EPR (continuous-wave, site-directed spin labelling); 15 uM spin-labeled peptide in 50 mM Tris, pH 7.6, 50 mM NaCl; rP172-W0 added to 15 uM, then to 75 uM; all in solution

binding result [1]: binds
B1: xAB2N, extended AB2 N-terminus (peptide, UniProt O55189 51-86, looked up)
peptide: TMRQLGSLQGLNALSQYSRLGFGKALNSLWLHGLLP
notes: source: synthetic peptide (Biomer Technologies)

binding result [1]: binds
B2: AB2N, the first 20 amino acids of the AB2 sequence (peptide, UniProt O55189 67-86, looked up)
peptide: YSRLGFGKALNSLWLHGLLP
notes: Mouse ameloblastin (Ambn), the first 20 residues of AB2; residues 3-20 of AB2 are stated to be residues 69-86 of mouse Ambn, so the peptide is 67-86; also called AB2 N-terminus; source: synthetic peptide (Biomer Technologies)

difference between inverse central linewidths (1/LW) of EPR spectra with and without Amel [2]: 0.16 to 0.35 G.^-1
B3: tryptophan-free recombinant porcine amelogenin (rP172-W25Y/W45Y/W161Y) (natural protein)
chain: T1 sequence (looked up)
